Patent US20260242419A1, “A CYCLIC PEPTIDE FOR TRAPPING INTERLEUKIN-1 BETA” (Merck Sharp & Dohme LLC, priority 2023, published 2026)
Starred links: 1 amine or outer side, 2 acyl side, 3 side chain; linkers in the order of their positions; H or OH if unused. Non-standard residues stand in square brackets, D forms with d. 3Pal4Ph4CO2H = 4-[5-[(2S)-2-amino-2-carboxy-ethyl]-2-pyridyl]benzoic acid, O=C([C@H](Cc1ccc(-c2ccc(C(=O)[*:3])cc2)nc1)N[*:1])[*:2]; dProc3CH2Pyrim = (2R,3S)-3-(pyrimidin-5-ylmethyl)pyrrolidine-2-carboxylic acid, O=C([C@H]1[C@@H](Cc2cncnc2)CCN1[*:1])[*:2]; TyrEtNAc = (2S)-3-[4-(2-acetamidoethoxy)phenyl]-2-amino-propanoic acid, CC(=O)NCCOc1ccc(C[C@H](N[*:1])C(=O)[*:2])cc1; dProc3Bn = (2R,3S)-3-benzylpyrrolidine-2-carboxylic acid, O=C([C@H]1[C@@H](Cc2ccccc2)CCN1[*:1])[*:2]; dProc4Bn = (2R,4R)-4-benzylpyrrolidine-2-carboxylic acid, O=C([C@H]1C[C@@H](Cc2ccccc2)CN1[*:1])[*:2]; Trp(βS-Me,4-F) = C[C@@H](c1c[nH]c2cccc(F)c12)[C@H](N)C(=O)O; Bip(4'-COOH) = N[C@@H](Cc1ccc(-c2ccc(C(=O)O)cc2)cc1)C(=O)O; Ala(1-bicyclo(1.1.1)pentyl) = N[C@@H](CC12CC(C1)C2)C(=O)O; dPro(4R-Bzl(4-F)) = O=C(O)[C@H]1C[C@@H](Cc2ccc(F)cc2)CN1; Ala(pyrimidin-5-yl) = N[C@@H](Cc1cncnc1)C(=O)O; Phe(4-COOH) = N[C@@H](Cc1ccc(C(=O)O)cc1)C(=O)O; Pro(cis-4-F) = O=C(O)[C@@H]1C[C@H](F)CN1; 2Pal = N[C@@H](Cc1ccccn1)C(=O)O; 3Pal = N[C@@H](Cc1cccnc1)C(=O)O; 4Pal = N[C@@H](Cc1ccncc1)C(=O)O; Dab = NCC[C@H](N)C(=O)O; Aib = CC(C)(N)C(=O)O

Biological target: Recombinant human IL-1β (BioLegend 579404) (human, UniProt P01584 117-269)
Test: cell-based or functional assay

Binder | MRC5 IC50 [pM]
cyclo([Bip(4'-COOH)][4Pal][Phe(4-COOH)]G[Pro(cis-4-F)][Trp(βS-Me,4-F)][Aib]EW[Aib][Ala(pyrimidin-5-yl)]QSG[dProc3Bn]) (SMILES C[C@@H](c1c[nH]c2cccc(F)c12)[C@@H]1NC(=O)[C@@H]2C[C@H](F)CN2C(=O)CNC(=O)[C@H](Cc2ccc(C(=O)O)cc2)NC(=O)[C@H](Cc2ccncc2)NC(=O)[C@H](Cc2ccc(-c3ccc(C(=O)O)cc3)cc2)NC(=O)[C@H]2[C@@H](Cc3ccccc3)CCN2C(=O)CNC(=O)[C@H](CO)NC(=O)[C@H](CCC(N)=O)NC(=O)[C@H](Cc2cncnc2)NC(=O)C(C)(C)NC(=O)[C@H](Cc2c[nH]c3ccccc23)NC(=O)[C@H](CCC(=O)O)NC(=O)C(C)(C)NC1=O) [SEQ ID NO: 28] | 23
cyclo([Bip(4'-COOH)][4Pal][Phe(4-COOH)]G[Pro(cis-4-F)][Trp(βS-Me,4-F)][Aib]EW[Aib][Ala(pyrimidin-5-yl)]QSG[dProc4Bn]) (SMILES C[C@@H](c1c[nH]c2cccc(F)c12)[C@@H]1NC(=O)[C@@H]2C[C@H](F)CN2C(=O)CNC(=O)[C@H](Cc2ccc(C(=O)O)cc2)NC(=O)[C@H](Cc2ccncc2)NC(=O)[C@H](Cc2ccc(-c3ccc(C(=O)O)cc3)cc2)NC(=O)[C@H]2C[C@@H](Cc3ccccc3)CN2C(=O)CNC(=O)[C@H](CO)NC(=O)[C@H](CCC(N)=O)NC(=O)[C@H](Cc2cncnc2)NC(=O)C(C)(C)NC(=O)[C@H](Cc2c[nH]c3ccccc23)NC(=O)[C@H](CCC(=O)O)NC(=O)C(C)(C)NC1=O) [SEQ ID NO: 30] | 26
cyclo([3Pal4Ph4CO2H][4Pal][Phe(4-COOH)]G[Pro(cis-4-F)][Trp(βS-Me,4-F)][Aib]EW[Aib][Ala(pyrimidin-5-yl)]Q[Dab]G[dPro(4R-Bzl(4-F))]) (SMILES C[C@@H](c1c[nH]c2cccc(F)c12)[C@@H]1NC(=O)[C@@H]2C[C@H](F)CN2C(=O)CNC(=O)[C@H](Cc2ccc(C(=O)O)cc2)NC(=O)[C@H](Cc2ccncc2)NC(=O)[C@H](Cc2ccc(-c3ccc(C(=O)O)cc3)nc2)NC(=O)[C@H]2C[C@@H](Cc3ccc(F)cc3)CN2C(=O)CNC(=O)[C@H](CCN)NC(=O)[C@H](CCC(N)=O)NC(=O)[C@H](Cc2cncnc2)NC(=O)C(C)(C)NC(=O)[C@H](Cc2c[nH]c3ccccc23)NC(=O)[C@H](CCC(=O)O)NC(=O)C(C)(C)NC1=O) [SEQ ID NO: 26] | 35
cyclo([Bip(4'-COOH)][4Pal][Phe(4-COOH)]G[Pro(cis-4-F)][Trp(βS-Me,4-F)][Aib]EW[Aib]FQSG[dProc3CH2Pyrim]) (SMILES C[C@@H](c1c[nH]c2cccc(F)c12)[C@@H]1NC(=O)[C@@H]2C[C@H](F)CN2C(=O)CNC(=O)[C@H](Cc2ccc(C(=O)O)cc2)NC(=O)[C@H](Cc2ccncc2)NC(=O)[C@H](Cc2ccc(-c3ccc(C(=O)O)cc3)cc2)NC(=O)[C@H]2[C@@H](Cc3cncnc3)CCN2C(=O)CNC(=O)[C@H](CO)NC(=O)[C@H](CCC(N)=O)NC(=O)[C@H](Cc2ccccc2)NC(=O)C(C)(C)NC(=O)[C@H](Cc2c[nH]c3ccccc23)NC(=O)[C@H](CCC(=O)O)NC(=O)C(C)(C)NC1=O) [SEQ ID NO: 27] | 98
cyclo([Bip(4'-COOH)][4Pal][Phe(4-COOH)]G[Pro(cis-4-F)][Trp(βS-Me,4-F)][Aib]EW[Aib][3Pal]QSG[dPro(4R-Bzl(4-F))]) (SMILES C[C@@H](c1c[nH]c2cccc(F)c12)[C@@H]1NC(=O)[C@@H]2C[C@H](F)CN2C(=O)CNC(=O)[C@H](Cc2ccc(C(=O)O)cc2)NC(=O)[C@H](Cc2ccncc2)NC(=O)[C@H](Cc2ccc(-c3ccc(C(=O)O)cc3)cc2)NC(=O)[C@H]2C[C@@H](Cc3ccc(F)cc3)CN2C(=O)CNC(=O)[C@H](CO)NC(=O)[C@H](CCC(N)=O)NC(=O)[C@H](Cc2cccnc2)NC(=O)C(C)(C)NC(=O)[C@H](Cc2c[nH]c3ccccc23)NC(=O)[C@H](CCC(=O)O)NC(=O)C(C)(C)NC1=O) [SEQ ID NO: 34] | 32
cyclo([Bip(4'-COOH)][4Pal][Phe(4-COOH)]G[Pro(cis-4-F)][Trp(βS-Me,4-F)][Aib]EW[Aib]RQ[Dab]G[dPro(4R-Bzl(4-F))]) (SMILES C[C@@H](c1c[nH]c2cccc(F)c12)[C@@H]1NC(=O)[C@@H]2C[C@H](F)CN2C(=O)CNC(=O)[C@H](Cc2ccc(C(=O)O)cc2)NC(=O)[C@H](Cc2ccncc2)NC(=O)[C@H](Cc2ccc(-c3ccc(C(=O)O)cc3)cc2)NC(=O)[C@H]2C[C@@H](Cc3ccc(F)cc3)CN2C(=O)CNC(=O)[C@H](CCN)NC(=O)[C@H](CCC(N)=O)NC(=O)[C@H](CCCNC(=N)N)NC(=O)C(C)(C)NC(=O)[C@H](Cc2c[nH]c3ccccc23)NC(=O)[C@H](CCC(=O)O)NC(=O)C(C)(C)NC1=O) [SEQ ID NO: 33] | 33
cyclo([Bip(4'-COOH)][4Pal][Phe(4-COOH)]G[Pro(cis-4-F)][Trp(βS-Me,4-F)][Aib]EW[Aib]FQRG[dPro(4R-Bzl(4-F))]) (SMILES C[C@@H](c1c[nH]c2cccc(F)c12)[C@@H]1NC(=O)[C@@H]2C[C@H](F)CN2C(=O)CNC(=O)[C@H](Cc2ccc(C(=O)O)cc2)NC(=O)[C@H](Cc2ccncc2)NC(=O)[C@H](Cc2ccc(-c3ccc(C(=O)O)cc3)cc2)NC(=O)[C@H]2C[C@@H](Cc3ccc(F)cc3)CN2C(=O)CNC(=O)[C@H](CCCNC(=N)N)NC(=O)[C@H](CCC(N)=O)NC(=O)[C@H](Cc2ccccc2)NC(=O)C(C)(C)NC(=O)[C@H](Cc2c[nH]c3ccccc23)NC(=O)[C@H](CCC(=O)O)NC(=O)C(C)(C)NC1=O) [SEQ ID NO: 35] | 49
cyclo([Bip(4'-COOH)][4Pal][Phe(4-COOH)]G[Pro(cis-4-F)][Trp(βS-Me,4-F)][Aib]EW[Aib][Ala(pyrimidin-5-yl)]Q[Dab]G[dProc4Bn]) (SMILES C[C@@H](c1c[nH]c2cccc(F)c12)[C@@H]1NC(=O)[C@@H]2C[C@H](F)CN2C(=O)CNC(=O)[C@H](Cc2ccc(C(=O)O)cc2)NC(=O)[C@H](Cc2ccncc2)NC(=O)[C@H](Cc2ccc(-c3ccc(C(=O)O)cc3)cc2)NC(=O)[C@H]2C[C@@H](Cc3ccccc3)CN2C(=O)CNC(=O)[C@H](CCN)NC(=O)[C@H](CCC(N)=O)NC(=O)[C@H](Cc2cncnc2)NC(=O)C(C)(C)NC(=O)[C@H](Cc2c[nH]c3ccccc23)NC(=O)[C@H](CCC(=O)O)NC(=O)C(C)(C)NC1=O) [SEQ ID NO: 31] | 24
cyclo([Bip(4'-COOH)][4Pal][Phe(4-COOH)]G[Pro(cis-4-F)][Trp(βS-Me,4-F)][Aib]EW[Aib]RQSG[dPro(4R-Bzl(4-F))]) (SMILES C[C@@H](c1c[nH]c2cccc(F)c12)[C@@H]1NC(=O)[C@@H]2C[C@H](F)CN2C(=O)CNC(=O)[C@H](Cc2ccc(C(=O)O)cc2)NC(=O)[C@H](Cc2ccncc2)NC(=O)[C@H](Cc2ccc(-c3ccc(C(=O)O)cc3)cc2)NC(=O)[C@H]2C[C@@H](Cc3ccc(F)cc3)CN2C(=O)CNC(=O)[C@H](CO)NC(=O)[C@H](CCC(N)=O)NC(=O)[C@H](CCCNC(=N)N)NC(=O)C(C)(C)NC(=O)[C@H](Cc2c[nH]c3ccccc23)NC(=O)[C@H](CCC(=O)O)NC(=O)C(C)(C)NC1=O) [SEQ ID NO: 32] | 49
cyclo([Bip(4'-COOH)][4Pal][Phe(4-COOH)]G[Pro(cis-4-F)][Trp(βS-Me,4-F)][Aib]EW[Aib][2Pal]QSG[dPro(4R-Bzl(4-F))]) (SMILES C[C@@H](c1c[nH]c2cccc(F)c12)[C@@H]1NC(=O)[C@@H]2C[C@H](F)CN2C(=O)CNC(=O)[C@H](Cc2ccc(C(=O)O)cc2)NC(=O)[C@H](Cc2ccncc2)NC(=O)[C@H](Cc2ccc(-c3ccc(C(=O)O)cc3)cc2)NC(=O)[C@H]2C[C@@H](Cc3ccc(F)cc3)CN2C(=O)CNC(=O)[C@H](CO)NC(=O)[C@H](CCC(N)=O)NC(=O)[C@H](Cc2ccccn2)NC(=O)C(C)(C)NC(=O)[C@H](Cc2c[nH]c3ccccc23)NC(=O)[C@H](CCC(=O)O)NC(=O)C(C)(C)NC1=O) [SEQ ID NO: 36] | 54
cyclo([TyrEtNAc][Ala(1-bicyclo(1.1.1)pentyl)][Phe(4-COOH)]G[Pro(cis-4-F)][Trp(βS-Me,4-F)][Aib]EW[Aib][Ala(pyrimidin-5-yl)]Q[Dab]G[dPro(4R-Bzl(4-F))]) (SMILES CC(=O)NCCOc1ccc(C[C@@H]2NC(=O)[C@H]3C[C@@H](Cc4ccc(F)cc4)CN3C(=O)CNC(=O)[C@H](CCN)NC(=O)[C@H](CCC(N)=O)NC(=O)[C@H](Cc3cncnc3)NC(=O)C(C)(C)NC(=O)[C@H](Cc3c[nH]c4ccccc34)NC(=O)[C@H](CCC(=O)O)NC(=O)C(C)(C)NC(=O)[C@H]([C@@H](C)c3c[nH]c4cccc(F)c34)NC(=O)[C@@H]3C[C@H](F)CN3C(=O)CNC(=O)[C@H](Cc3ccc(C(=O)O)cc3)NC(=O)[C@H](CC34CC(C3)C4)NC2=O)cc1) [SEQ ID NO: 25] | 53
cyclo([Bip(4'-COOH)][4Pal][Phe(4-COOH)]G[Pro(cis-4-F)][Trp(βS-Me,4-F)][Aib]EW[Aib][Ala(pyrimidin-5-yl)]Q[Dab]G[dProc3Bn]) [SEQ ID NO: 29] | 19
cyclo([Bip(4'-COOH)][4Pal][Phe(4-COOH)]G[Pro(cis-4-F)][Trp(βS-Me,4-F)][Aib]EW[Aib][Ala(pyrimidin-5-yl)]QSG[dPro(4R-Bzl(4-F))]) (SMILES C[C@@H](c1c[nH]c2cccc(F)c12)[C@@H]1NC(=O)[C@@H]2C[C@H](F)CN2C(=O)CNC(=O)[C@H](Cc2ccc(C(=O)O)cc2)NC(=O)[C@H](Cc2ccncc2)NC(=O)[C@H](Cc2ccc(-c3ccc(C(=O)O)cc3)cc2)NC(=O)[C@H]2C[C@@H](Cc3ccc(F)cc3)CN2C(=O)CNC(=O)[C@H](CO)NC(=O)[C@H](CCC(N)=O)NC(=O)[C@H](Cc2cncnc2)NC(=O)C(C)(C)NC(=O)[C@H](Cc2c[nH]c3ccccc23)NC(=O)[C@H](CCC(=O)O)NC(=O)C(C)(C)NC1=O) [SEQ ID NO: 3] | 37
